Article PMC7491322, “Molecular basis for the distinct cellular functions of the Lsm1–7 and Lsm2–8 complexes”

Experiments:
Lsm2-8 [1] = molecular target: T1, Lsm2-8 (Schizosaccharomyces pombe, UniProt O94408;Q9Y7M4;O14352;O42978;Q9UUI1;O74499;O74483 …); assay: fluorescence polarization; FP: 100 mM NaCl, 20 mM Tris pH 8.2 (final ~8), 10 mM MgCl2, 1 mM TCEP, 1 mM Na azide, 0.1 mg/mL each tRNA, BSA and heparin; temperature not stated; 1 nM RNA final; Hill fixed at 1; details: protein: recombinant; tags: Lsm4 C-term strep-II; Lsm7 C-term His6; GST (Lsm3) and MBP (Lsm6) with TEV sites, TEV treated; copies: 1;1;1;1;1;1;1; label: 5'-FAM; single-stranded
Lsm1Δ56C-7 [2] = molecular target: T2, Lsm1Δ56C-7 (Schizosaccharomyces pombe, UniProt P87173;O94408;Q9Y7M4;O14352;O42978;Q9UUI1;O74499 …); assay: as above; details: protein: recombinant, tags: as P2, copies: 1;1;1;1;1;1;1, label: 5'-FAM
Lsm1-7 [3] = molecular target: T3, Lsm1-7 (Schizosaccharomyces pombe, UniProt P87173;O94408;Q9Y7M4;O14352;O42978;Q9UUI1;O74499 …); assay: as above; details: protein: recombinant, tags: Lsm4 C-term strep-II (as for Lsm2-8), Lsm7 untagged, GST (Lsm3) and MBP (Lsm6) with TEV sites, TEV treated, copies: 1;1;1;1;1;1;1, label: 5'-FAM
Lsm1Δ56C-7 [4] = molecular target: T2, Lsm1Δ56C-7; assay: X-ray crystallography; 2.1 Å; FP: 100 mM NaCl, 20 mM Tris pH 8.2 (final ~8), 10 mM MgCl2, 1 mM TCEP, 1 mM Na azide, 0.1 mg/mL each tRNA, BSA and heparin; temperature not stated; 1 nM RNA final; Hill fixed at 1; details: protein: recombinant; tags: as P2; copies: 1;1;1;1;1;1;1; single-stranded
Lsm2-8 [5] = molecular target: T1, Lsm2-8; assay: X-ray crystallography; 2.3 Å; FP: 100 mM NaCl, 20 mM Tris pH 8.2 (final ~8), 10 mM MgCl2, 1 mM TCEP, 1 mM Na azide, 0.1 mg/mL each tRNA, BSA and heparin; temperature not stated; 1 nM RNA final; Hill fixed at 1; details: protein: recombinant; tags: Lsm4 C-term strep-II; Lsm7 C-term His6; GST (Lsm3) and MBP (Lsm6) with TEV sites, TEV treated; copies: 1;1;1;1;1;1;1; single-stranded
Lsm1Δ56C-7 [6] = molecular target: T2, Lsm1Δ56C-7; assay: X-ray crystallography; 1.8 Å; FP: 100 mM NaCl, 20 mM Tris pH 8.2 (final ~8), 10 mM MgCl2, 1 mM TCEP, 1 mM Na azide, 0.1 mg/mL each tRNA, BSA and heparin; temperature not stated; 1 nM RNA final; Hill fixed at 1; details: protein: recombinant; tags: as P2; copies: 1;1;1;1;1;1;1; single-stranded
Lsm2-8 [7] = molecular target: T1, Lsm2-8; assay: X-ray crystallography; 1.9 Å; FP: 100 mM NaCl, 20 mM Tris pH 8.2 (final ~8), 10 mM MgCl2, 1 mM TCEP, 1 mM Na azide, 0.1 mg/mL each tRNA, BSA and heparin; temperature not stated; 1 nM RNA final; Hill fixed at 1; details: protein: recombinant; tags: Lsm4 C-term strep-II; Lsm7 C-term His6; GST (Lsm3) and MBP (Lsm6) with TEV sites, TEV treated; copies: 1;1;1;1;1;1;1; single-stranded
Lsm1-7 [8] = molecular target: T3, Lsm1-7; assay: fluorescence polarization; FP: 100 mM NaCl, 20 mM Tris pH 8.2 (final ~8), 10 mM MgCl2, 1 mM TCEP, 1 mM Na azide, 0.1 mg/mL each tRNA, BSA and heparin; temperature not stated; 1 nM RNA final; Hill fixed at 1; details: protein: recombinant; tags: Lsm4 C-term strep-II (as for Lsm2-8); Lsm7 untagged; GST (Lsm3) and MBP (Lsm6) with TEV sites, TEV treated; copies: 1;1;1;1;1;1;1; label: 5'-FAM; single-stranded
Lsm1-7 (Lsm5 N66A/N68A) = Lsm1-7 (Lsm5 N66A/N68A) (Schizosaccharomyces pombe, UniProt P87173;O94408;Q9Y7M4;O14352;O42978;Q9UUI1;O74499 …, N66A;N68A;Lsm5); assay: as above; details: protein: recombinant; tags: as P2; copies: 1;1;1;1;1;1;1; label: 5'-FAM; single-stranded
[9] = 5' hairpin, single-stranded 3' end

Binder: ACCCAUUUUU (ssRNA, 2',3' cyclic phosphate) [U6 3' tail, 2',3' cyclic phosphate]
- Kd (Lsm2-8 [1]): 26 nM

Binder: AAAAAAAAAAAAAAA (ssRNA) [A15]
- binding result (Lsm1Δ56C-7 [2]; single-stranded): no binding

Binder: UUUUUUUUUUUUUUA (ssRNA) [U14A]
- binding result (Lsm1-7 [3]; single-stranded): binds

Binder: ACCCAUUUUUA (ssRNA) [3' monoadenylated oligoU RNA]
- binding result (Lsm2-8 [1]): binds

Binder: UUUUUUUUUUUUUAA (ssRNA) [U13AA]
- binding result (Lsm1-7 [3]; single-stranded): binds

Binder: AUUUUG (ssRNA)
- binding result (Lsm1Δ56C-7 [4]): binds

Binder: UUUUU (ssRNA, 2',3' cyclic phosphate) [UUUUU>p]
- binding result (Lsm2-8 [5]): binds

Binder: GGCACUUCGGUGCCCCCCAUUUUA (structured_RNA) [5' stem-loop RNA with UUUUA site]
- Kd (Lsm1-7 [3]; [9]): 70 nM
- Kd (Lsm1Δ56C-7 [2]; [9]): 32 nM

Binder: UUUUUA (ssRNA)
- binding result (Lsm1Δ56C-7 [6]): binds

Binder: UUUUU (ssRNA) [UUUUU-3'-OH]
- binding result (Lsm2-8 [7]): binds

Binder: ACCCAUUUUU (ssRNA, 2',3' cyclic phosphate) [cyclic phosphate oligoU RNA (Lsm1-7 assays)]
- binding signal (Lsm1-7 [8]): ~14 fold weaker than N4
- binding signal (Lsm1-7 (Lsm5 N66A/N68A)): ~7 fold weaker than adenosine-terminated RNA

Binder: CCCCCUUUUUA (ssRNA)
- Kd (Lsm1-7 [3]; single-stranded): 29.7 nM
- Kd (Lsm1Δ56C-7 [2]; single-stranded): 13 nM

Binder: ACCCAUUUUU (ssRNA) [U6 3' tail, 3'-OH]
- Kd (Lsm2-8 [1]): 100 nM

Binder: UUUUUACCCCC (ssRNA)
- Kd (Lsm1-7 [3]; single-stranded): 189 nM
- Kd (Lsm1Δ56C-7 [2]; single-stranded): 34 nM

Binder: UUUUUUUUUUUUUUU (ssRNA) [U15]
- binding result (Lsm1-7 [3]; single-stranded): binds

Binder: ACCCAUUUUU (ssRNA, 3' phosphate) [U6 3' tail, 3' phosphate]
- Kd (Lsm2-8 [1]): 152 nM
